Laboratory results from patent publication US20250064890A1, “PROTEIN COMPOSITIONS FOR THE TREATMENT OF INFLAMMATORY DISEASES” (Unichem Laboratories Limited, priority 2021, published 2025).

Tests used:
Assay type in all cases: cell-based, human
[1] = system: oral (buccal) mucosa cells (TR146); test: Annexin positive cell population against 5-FU damage
IL-1β = test: Multiplex analysis, chemotherapy (5-FU), TR146; conditions: for IL-1-β against chemotherapy induced levels: 5-FU, in words
Experimental: (§1) Oral buccal mucosal cells (TR146) cells were incubated overnight at 37° C. in 5% CO2 incubator. […] The cells were then stimulated with 5-FU (10 mM) for another 24h for chemotherapy and with gamma radiation (3.5 kGy) using Cobalt 60 for radiotherapy. After 24 h, cell culture supernatants were collected from each well and stored at −20° C. till multiplex analysis. For NF-kB estimations, cell lysates were prepared. Levels of biomarkers were estimated using Magpix® multiplex machine. The cells treated with Amifostine (along with 5-FU or radiation) were considered as positive control (PC). Untreated cells (5-FU or radiation alone treated) were used as negative control (NC).
(§2) The percent modulation in each sample was determined as follows:
(§3) [{Concentration of biomarkers (pg/ml) in Control cells (5-FU or radiation alone treated)−Concentration of biomarkers (pg/ml) in SEQ ID NO: 2+5-FU or radiation treated cells)}/Concentration of biomarkers (pg/ml) in Control cells (5-FU or radiation alone treated)]*100

IL-6 = test: Multiplex analysis, chemotherapy (5-FU), TR146; conditions: for IL-6 against chemotherapy induced levels: 5-FU, in words
Experimental: as §1, §2, §3

TNF-α = test: Multiplex analysis, chemotherapy (5-FU), TR146; conditions: for TNF-α against chemotherapy induced levels: 5-FU, in words
Experimental: as §1, §2, §3

VEGF = test: Multiplex analysis, chemotherapy (5-FU), TR146; conditions: for VEGF against chemotherapy induced levels: 5-FU, in words
Experimental: as §1, §2, §3

IL-12/IL-23p40 = test: Multiplex analysis, chemotherapy (5-FU), TR146; conditions: for IL-12/IL-23p40 against chemotherapy induced levels: 5-FU, in words
Experimental: as §1, §2, §3

MMP-3 = test: Multiplex analysis, chemotherapy (5-FU), TR146; conditions: for MMP-3 against chemotherapy induced levels: 5-FU, in words
Experimental: as §1, §2, §3

[2] = system: oral (buccal) mucosa cells (TR146); test: Restoration of mitochondrial membrane potential (JC-1) against 5-FU induced damage; conditions: for MMP: mitochondrial membrane potential, red/green JC-1 fluorescence ratio
Experimental: Oral buccal mucosal cells (TR146) were incubated overnight in 5% CO2 incubator at 37° C. for 24 h. […] After 24 h of treatment, cells were exposed to damage (5-FU 5 mM) for 1.25 h for chemotherapy induced inflammation and exposed to gamma radiation (3.5 kGy) using Cobalt 60 for radiation induced inflammation. After the exposure, the anti-apoptotic effect of SEQ ID NO 2 was determined by restoration of mitochondrial membrane depolarization by JC-1 staining and reduction in apoptotic cell populations (Annexin positive and subG0/G1 cells in cell cycle analysis).
After incubation, the supernatants were discarded and 100 μl of JC1-dye solution (prepared by diluting 1 mM DMSO stock into 10 μM in 1×PBS) was added to each well. The cells were then incubated with the dye in CO2 incubator at 37° C. for 15 min, after which the supernatant was removed, and the cells were washed twice with 1×PBS. 100 μl of 1×PBS was finally added to each well. Red fluorescence (excitation 550 nm, emission 600 nm) and green fluorescence (excitation 485 nm, emission 535 nm) were measured using Biotek Synergy HT plate reader. The mitochondrial membrane potential (Δψm) was calculated as the ratio of intensity of red fluorescence to intensity of green fluorescence.
The percentage increase/restoration in mitochondrial membrane potential (MMP) was calculated as: % Increase=[(R−X)/R]*100 • Where, X=Δψm corresponding to TI+5-FU treated cells or TI+radiation treated cells; R=Δψm corresponding to control cells (FU damaged or Radiation damaged alone)

B1: SEQ ID NO 2: recombinant lectin, variant of the S. rolfsii lectin amino acid sequence (reported as Rec-2 in WO 2010/095143) (protein)
chain: TYKITVRVYQTNPDAFFHPVEKTVWKYANGGTWTITDDQHVLTMGGSGTSGTLRFHADNGESFTATFGVHNYKRWCDIVTNLAADETGMVINQQYYSQKNREEARERQLSNYQVKNAKGRNFQIVYTEAEGNDLHANLIIG
% Apoptotic cells (Annexin +ve) ([1]; 0.01 μg/ml + 5FU (10 mM)): 3%
% Decrease in Apoptotic cells (with respect to 5-FU) ([1]; 0.01 μg/ml + 5FU (10 mM)): 81.7%
% Apoptotic cells (Annexin +ve) ([1]; 1 μg/ml + 5FU (10 mM)): 3.1%
% Decrease in Apoptotic cells (with respect to 5-FU) ([1]; 1 μg/ml + 5FU (10 mM)): 81.1%
% Apoptotic cells (Annexin +ve) ([1]; 10 μg/ml + 5FU (10 mM)): 8%
% Decrease in Apoptotic cells (with respect to 5-FU) ([1]; 10 μg/ml + 5FU (10 mM)): 51.5%
% Apoptotic cells (Annexin +ve) ([1]; 50 μg/ml + 5FU (10 mM)): 19.3%
% Decrease in Apoptotic cells (with respect to 5-FU) ([1]; 50 μg/ml + 5FU (10 mM)): −17.4%
% Apoptotic cells (Annexin +ve) ([1]; 100 μg/ml + 5FU (10 mM)): 26%
% Decrease in Apoptotic cells (with respect to 5-FU) ([1]; 100 μg/ml + 5FU (10 mM)): −58.5%
Percentage Inhibition IL-1β (IL-1β; 0.1 μg/ml + 5-FU (10 mM)): 5.5%
Percentage Inhibition IL-1β (IL-1β; 10 μg/ml + 5-FU (10 mM)): 3.6%
Percentage Inhibition IL-1β (IL-1β; 25 μg/ml + 5-FU (10 mM)): 11%
Percentage Inhibition IL-1β (IL-1β; 50 μg/ml + 5-FU (10 mM)): 29.1%
Percentage Inhibition IL-1β (IL-1β; 100 μg/ml + 5-FU (10 mM)): 23.5%
IL-1-β against chemotherapy induced levels (IL-1β): lowering of levels
IL-1-β against chemotherapy induced levels (IL-1β; listed as test items): downregulation
Percentage Inhibition IL-6 (IL-6; 0.1 μg/ml + 5-FU (10 mM)): 5.4%
Percentage Inhibition IL-6 (IL-6; 10 μg/ml + 5-FU (10 mM)): 7.8%
Percentage Inhibition IL-6 (IL-6; 25 μg/ml + 5-FU (10 mM)): 18.2%
Percentage Inhibition IL-6 (IL-6; 50 μg/ml + 5-FU (10 mM)): 38.6%
Percentage Inhibition IL-6 (IL-6; 100 μg/ml + 5-FU (10 mM)): 42.2%
IL-6 against chemotherapy induced levels (IL-6): lowering of levels
IL-6 against chemotherapy induced levels (IL-6; listed as test items): downregulation
Percentage Inhibition TNF-α (TNF-α; 0.1 μg/ml + 5-FU (10 mM)): 13.3%
Percentage Inhibition TNF-α (TNF-α; 10 μg/ml + 5-FU (10 mM)): 10%
Percentage Inhibition TNF-α (TNF-α; 25 μg/ml + 5-FU (10 mM)): 10%
Percentage Inhibition TNF-α (TNF-α; 50 μg/ml + 5-FU (10 mM)): 13.3%
Percentage Inhibition TNF-α (TNF-α; 100 μg/ml + 5-FU (10 mM)): 6.6%
TNF-α against chemotherapy induced levels (TNF-α): lowering of levels
TNF-α against chemotherapy induced levels (TNF-α; listed as test items): downregulation
Percentage Inhibition VGEF (VEGF; 0.1 μg/ml + 5-FU (10 mM)): 25%
Percentage Inhibition VGEF (VEGF; 10 μg/ml + 5-FU (10 mM)): 24.4%
Percentage Inhibition VGEF (VEGF; 25 μg/ml + 5-FU (10 mM)): 28%
Percentage Inhibition VGEF (VEGF; 50 μg/ml + 5-FU (10 mM)): 37.8%
Percentage Inhibition VGEF (VEGF; 100 μg/ml + 5-FU (10 mM)): 41.7%
VEGF against chemotherapy induced levels (VEGF): lowering of levels
VEGF against chemotherapy induced levels (VEGF; listed as test items): downregulation
Percentage Inhibition IL-12/IL-23p40 (IL-12/IL-23p40; 0.1 μg/ml + 5-FU (10 mM)): 13.5%
Percentage Inhibition IL-12/IL-23p40 (IL-12/IL-23p40; 10 μg/ml + 5-FU (10 mM)): 33.8%
Percentage Inhibition IL-12/IL-23p40 (IL-12/IL-23p40; 25 μg/ml + 5-FU (10 mM)): 36.8%
Percentage Inhibition IL-12/IL-23p40 (IL-12/IL-23p40; 50 μg/ml + 5-FU (10 mM)): 42.6%
Percentage Inhibition IL-12/IL-23p40 (IL-12/IL-23p40; 100 μg/ml + 5-FU (10 mM)): 36.6%
IL-12/IL-23p40 against chemotherapy induced levels (IL-12/IL-23p40): lowering of levels
IL-12/IL-23p40 against chemotherapy induced levels (IL-12/IL-23p40; listed as test items): downregulation
Percentage Inhibition MMP-3 (MMP-3; 0.1 μg/ml + 5-FU (10 mM)): 22%
Percentage Inhibition MMP-3 (MMP-3; 10 μg/ml + 5-FU (10 mM)): 29.5%
Percentage Inhibition MMP-3 (MMP-3; 25 μg/ml + 5-FU (10 mM)): 30.6%
Percentage Inhibition MMP-3 (MMP-3; 50 μg/ml + 5-FU (10 mM)): 27.3%
Percentage Inhibition MMP-3 (MMP-3; 100 μg/ml + 5-FU (10 mM)): 8.8%
MMP-3 against chemotherapy induced levels (MMP-3): lowering of levels
MMP-3 against chemotherapy induced levels (MMP-3; listed as test items): downregulation
% Increase in MMP (with respect to control) ([2]; 0.01 μg/ml + 5FU): about 67%
MMP ([2]; 0.01 μg/ml + 5FU): 14.1
% Increase in MMP (with respect to control) ([2]; 0.1 μg/ml + 5FU): 67.5%
MMP ([2]; 0.1 μg/ml + 5FU): 14.2
% Increase in MMP (with respect to control) ([2]; 1 μg/ml + 5FU): 81.5%
MMP ([2]; 1 μg/ml + 5FU): 15.4
% Increase in MMP (with respect to control) ([2]; 10 μg/ml + 5FU): 79.6%
MMP ([2]; 10 μg/ml + 5FU): 15.2
% Increase in MMP (with respect to control) ([2]; 25 μg/ml + 5FU): 104.8%
MMP ([2]; 25 μg/ml + 5FU): 17.3
MMP ([2]; 50 μg/ml + 5FU): 17.8
% Increase in MMP (with respect to control) ([2]; 100 μg/ml + 5FU): 106.2%
MMP ([2]; 100 μg/ml + 5FU): 17.5
